Assay [1] concerns the target T1, Her2-eGFP (hsHER2_ecd_tm-eGFP) (human (printed as hs)).
T1 construct: Her2 ectodomain and transmembrane region fused to eGFP, expressed on K562 cells by lentiviral transduction; also called K562/Her2
As to the kind of experiment: flow cytometry on mixed K562 cells expressing Her2-eGFP, EGFR-iRFP, both or neither; DARPin pre-complexed with Bcl2-AF594, 3-fold dilutions from 300 nM to 0.4 nM. How it is done:
(§1) FIG. 21. DARPin binder affinity measured by flow cytometry. Anti-Her2 or anti-EGFR DARPins with N-terminal fusions to Bim were pre-complexed with Bcl2-AF594 and serially diluted 3-fold from 300 nM down to 0.4 nM. This dilution series was used to label a mixed population of K562 cells expressing Her2-eGFP, EGFR-iRFP, both, or neither for one hour at room temperature in a 50 μl incubation volume. The cells were then washed in PBS supplemented with 0.1% bovine serum albumin and analyzed on an LSRII flow cytometer.
On the technique in general: Flow cytometry measures light scatter and fluorescence of single cells or particles in a stream.

The target in assay [2] is T2, EGFR-iRFP (hsEGFR_ecd_tm-iRFP) (human (printed as hs)).
T2 construct: EGFR ectodomain and transmembrane region fused to iRFP, expressed on K562 cells by lentiviral transduction; also called K562/EGFR
The assay is described as above. How it is done:
as §1

T2 sequence (chain, as listed by the source limits assumed): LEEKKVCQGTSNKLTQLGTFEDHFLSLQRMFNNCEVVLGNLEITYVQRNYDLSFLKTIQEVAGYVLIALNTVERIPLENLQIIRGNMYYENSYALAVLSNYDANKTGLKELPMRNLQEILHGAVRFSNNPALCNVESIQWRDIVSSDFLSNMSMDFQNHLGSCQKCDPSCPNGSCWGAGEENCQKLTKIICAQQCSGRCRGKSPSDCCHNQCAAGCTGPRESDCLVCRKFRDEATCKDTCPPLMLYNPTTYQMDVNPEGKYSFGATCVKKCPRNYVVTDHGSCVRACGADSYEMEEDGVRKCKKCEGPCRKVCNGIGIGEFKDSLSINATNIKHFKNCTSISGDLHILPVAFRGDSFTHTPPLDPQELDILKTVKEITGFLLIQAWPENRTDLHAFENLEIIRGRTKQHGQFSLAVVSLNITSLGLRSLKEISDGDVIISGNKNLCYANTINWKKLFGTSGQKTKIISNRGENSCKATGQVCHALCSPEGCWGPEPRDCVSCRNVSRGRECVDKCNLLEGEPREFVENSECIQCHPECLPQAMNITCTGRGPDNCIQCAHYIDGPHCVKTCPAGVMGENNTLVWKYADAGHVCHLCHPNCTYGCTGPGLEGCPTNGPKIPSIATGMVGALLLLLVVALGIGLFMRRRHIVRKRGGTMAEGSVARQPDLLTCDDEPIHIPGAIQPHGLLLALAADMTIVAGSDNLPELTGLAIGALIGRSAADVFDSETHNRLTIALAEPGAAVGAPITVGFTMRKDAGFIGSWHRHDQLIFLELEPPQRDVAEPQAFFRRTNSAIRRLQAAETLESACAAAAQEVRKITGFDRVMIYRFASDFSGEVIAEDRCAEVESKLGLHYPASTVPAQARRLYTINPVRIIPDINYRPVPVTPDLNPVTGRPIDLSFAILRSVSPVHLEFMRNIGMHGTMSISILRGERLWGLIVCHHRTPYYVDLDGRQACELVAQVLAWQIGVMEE

B1: Bim_Her2 (Her2 DARPin tagged with N-terminal Bim peptide) (designed binder)
chain: MGSHHHHHHGSGSENLYFQGSTDEIWIAQELRRIGDEFNAYYASGSGDLGKKLLEAARAGQDDEVRILMANGADVNAKDEYGLTPLYLATAHGHLEIVEVLLKNGADVNAVDAIGFTPLHLAAFIGHLEIAEVLLKHGADVNAQDKFGKTAFDISIGNGNEDLAEILQKLN
notes: also called anti-Her2 DARPin with N-terminal fusion to Bim; Bim-DARPin
The molecule B1 showed a Kd in assay [1] of about 10 nM.

B2: Bim_EGFR (EGFR DARPin tagged with N-terminal Bim peptide) (designed binder)
chain: MGSHHHHHHGSGSENLYFQGSTDEIWIAQELRRIGDEFNAYYASGSGDLGKKLLEAARAGQDDEVRILMANGADVNADDTWGWTPLHLAAYQGHLEIVEVLLKNGADVNAYDYIGWTPLHLAADGHLEIVEVLLKNGADVNASDYIGDTPLHLAAHNGHLEIVEVLLKHGADVNAQDKFGKTAFDISIDNGNEDLAEILQKLN
notes: also called anti-EGFR DARPin with N-terminal fusion to Bim; Bim-DARPin
Molecule B2 had a Kd in assay [2] of about 10 nM.

Usually Kd stands for a measure of binding affinity in units of concentration. A low value points to tighter binding.

The record behind these values is patent US20220218752A1 (University of Washington, published 2022).
